B1: TNRC6A, Q8NDV7 (peptide)
chain: DHLGGGGESM
B2: RSBN1, Q5VWQ0 (peptide)
chain: NLQEHSTTSV
B3: GNG4, P50150 (peptide)
chain: REKKFFCTIL
B4: PLCB1, Q9NQ66 (peptide)
chain: IPGKEFDTPL

Tests used:
Test in all cases: holdup assay
Design in all cases: key: below the threshold = too weak to quantify, mostly under pKd 3.1 to 4
Settings in all cases: plain residues with an end cap or a label only (N-terminal biotin on a linker: ado-ado)
FRMPD2_3, Q68DX3 = molecular target: FRMPD2_3, Q68DX3
GRIP2_4, Q9C0E4 = molecular target: GRIP2_4, Q9C0E4
NOS1, P29475 = molecular target: NOS1, P29475
Inadl_4, Q8NI35 = molecular target: Inadl_4, Q8NI35
HTRA2, O43464 = molecular target: HTRA2, O43464
DLG3_2, Q92796 = molecular target: T1, DLG3_2, Q92796
T1 sequence (Q92796 221-321, limits assumed, looked up): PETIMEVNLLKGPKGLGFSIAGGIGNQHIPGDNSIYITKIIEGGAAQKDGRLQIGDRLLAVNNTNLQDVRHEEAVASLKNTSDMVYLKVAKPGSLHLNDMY

MPP7, Q5T2T1 = molecular target: T2, MPP7, Q5T2T1
T2 sequence (Q5T2T1 134-230, limits assumed, looked up): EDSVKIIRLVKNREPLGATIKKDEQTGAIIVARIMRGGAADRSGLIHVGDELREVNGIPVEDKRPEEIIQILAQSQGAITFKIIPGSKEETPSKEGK

PDZD2_2, O15018 = molecular target: T3, PDZD2_2, O15018
T3 sequence (O15018 329-429, limits assumed, looked up): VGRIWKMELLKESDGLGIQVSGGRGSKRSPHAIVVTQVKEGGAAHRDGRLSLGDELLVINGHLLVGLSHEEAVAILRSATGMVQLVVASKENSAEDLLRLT

MAGI2_5, Q86UL8 = molecular target: MAGI2_5, Q86UL8
RADIL, Q96JH8 = molecular target: T4, RADIL, Q96JH8
T4 sequence (Q96JH8 971-1071, limits assumed, looked up): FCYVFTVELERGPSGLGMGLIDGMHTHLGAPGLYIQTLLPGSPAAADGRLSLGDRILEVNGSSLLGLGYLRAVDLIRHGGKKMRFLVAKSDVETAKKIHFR

Inadl_5, Q8NI35 = molecular target: Inadl_5, Q8NI35
MAGI2_2, Q86UL8 = molecular target: MAGI2_2, Q86UL8
HTRA4, P83105 = molecular target: T5, HTRA4, P83105
T5 sequence (P83105 378-476, limits assumed, looked up): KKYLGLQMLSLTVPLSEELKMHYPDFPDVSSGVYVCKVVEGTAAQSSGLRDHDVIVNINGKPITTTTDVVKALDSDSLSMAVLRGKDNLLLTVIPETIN

IL16_3, Q14005 = molecular target: IL16_3, Q14005
DLG3_3, Q92796 = molecular target: T6, DLG3_3, Q92796
T6 sequence (Q92796 374-475, limits assumed, looked up): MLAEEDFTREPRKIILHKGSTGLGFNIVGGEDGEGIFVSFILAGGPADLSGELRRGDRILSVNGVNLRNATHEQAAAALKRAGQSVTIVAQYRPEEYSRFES

SCRIB_3, Q14160 = molecular target: SCRIB_3, Q14160
MAST1, Q9Y2H9 = molecular target: MAST1, Q9Y2H9
DLG4_3, P78352 = molecular target: DLG4_3, P78352
Inadl_6, Q8NI35 = molecular target: Inadl_6, Q8NI35
DFNB31_3, Q9P202 = molecular target: T7, DFNB31_3, Q9P202
T7 sequence (Q9P202 811-907, limits assumed, looked up): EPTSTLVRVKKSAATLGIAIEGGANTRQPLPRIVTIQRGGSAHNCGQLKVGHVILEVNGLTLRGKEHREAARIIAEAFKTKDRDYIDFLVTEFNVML

Inadl_1, Q8NI35 = molecular target: Inadl_1, Q8NI35
LAP2, Q96RT1 = molecular target: LAP2, Q96RT1
LIN7C, Q9NUP9 = molecular target: T8, LIN7C, Q9NUP9
T8 sequence (Q9NUP9 88-185, limits assumed, looked up): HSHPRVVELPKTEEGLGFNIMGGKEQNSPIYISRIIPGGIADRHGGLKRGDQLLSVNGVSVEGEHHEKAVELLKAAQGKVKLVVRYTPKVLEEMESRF

PTPN13_1, Q12923 = molecular target: T9, PTPN13_1, Q12923
T9 sequence (Q12923 1088-1188, limits assumed, looked up): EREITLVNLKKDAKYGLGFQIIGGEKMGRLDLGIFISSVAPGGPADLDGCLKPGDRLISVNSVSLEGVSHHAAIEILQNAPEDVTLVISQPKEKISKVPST

PICK1, Q9NRD5 = molecular target: PICK1, Q9NRD5
DFNB31_2, Q9P202 = molecular target: T10, DFNB31_2, Q9P202
T10 sequence (Q9P202 274-371, limits assumed, looked up): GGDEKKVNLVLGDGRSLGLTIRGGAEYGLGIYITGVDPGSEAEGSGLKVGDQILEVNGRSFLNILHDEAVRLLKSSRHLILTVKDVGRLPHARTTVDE

TX1BP3, O14907 = molecular target: T11, TX1BP3, O14907
T11 sequence (O14907 10-122, limits assumed, looked up): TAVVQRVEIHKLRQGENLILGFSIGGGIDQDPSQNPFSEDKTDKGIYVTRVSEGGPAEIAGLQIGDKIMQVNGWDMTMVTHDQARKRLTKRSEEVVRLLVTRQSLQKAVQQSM

IL16_3, Q14005, sequence (Q14005 1107-1207): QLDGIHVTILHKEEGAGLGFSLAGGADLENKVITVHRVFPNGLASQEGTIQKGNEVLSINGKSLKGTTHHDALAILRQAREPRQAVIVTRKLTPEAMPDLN
LAP2, Q96RT1, sequence (Q96RT1 other isoform, or with tags, fused parts or gaps): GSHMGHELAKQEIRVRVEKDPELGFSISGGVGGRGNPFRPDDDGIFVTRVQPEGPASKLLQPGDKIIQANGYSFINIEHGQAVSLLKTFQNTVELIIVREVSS
FRMPD2_3, Q68DX3, sequence (Q68DX3 1073-1166): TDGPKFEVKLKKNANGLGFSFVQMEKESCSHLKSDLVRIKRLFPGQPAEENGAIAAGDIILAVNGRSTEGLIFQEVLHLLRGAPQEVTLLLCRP
SCRIB_3, Q14160, sequence (Q14160 999-1103): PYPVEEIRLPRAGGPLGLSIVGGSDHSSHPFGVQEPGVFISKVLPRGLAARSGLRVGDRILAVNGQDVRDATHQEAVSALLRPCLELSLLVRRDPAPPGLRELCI
Inadl_4, Q8NI35, sequence (Q8NI35 547-651): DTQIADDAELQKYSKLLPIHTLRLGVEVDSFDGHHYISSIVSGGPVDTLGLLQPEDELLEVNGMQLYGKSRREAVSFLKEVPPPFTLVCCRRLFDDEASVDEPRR
MAGI2_2, Q86UL8, sequence (Q86UL8 410-522): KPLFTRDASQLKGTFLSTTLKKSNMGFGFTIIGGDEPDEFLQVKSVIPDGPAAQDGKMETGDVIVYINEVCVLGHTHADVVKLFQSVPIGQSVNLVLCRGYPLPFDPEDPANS
GRIP2_4, Q9C0E4, sequence (Q9C0E4 446-548): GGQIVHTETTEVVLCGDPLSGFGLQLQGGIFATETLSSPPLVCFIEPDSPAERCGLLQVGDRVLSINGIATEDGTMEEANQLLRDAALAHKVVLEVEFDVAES
NOS1, P29475, sequence (P29475 9-101): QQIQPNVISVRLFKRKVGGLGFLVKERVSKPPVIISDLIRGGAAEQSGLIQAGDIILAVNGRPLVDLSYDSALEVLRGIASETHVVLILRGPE
MAST1, Q9Y2H9, sequence (Q9Y2H9 962-1065): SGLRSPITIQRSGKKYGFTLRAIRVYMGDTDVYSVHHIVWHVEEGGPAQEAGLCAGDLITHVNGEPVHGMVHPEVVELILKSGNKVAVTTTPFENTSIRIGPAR
Inadl_5, Q8NI35, sequence (Q8NI35 673-780): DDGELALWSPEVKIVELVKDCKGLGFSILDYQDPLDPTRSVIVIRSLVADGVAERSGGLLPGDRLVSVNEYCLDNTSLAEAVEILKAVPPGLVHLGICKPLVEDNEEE
HTRA2, O43464, sequence (O43464 355-458): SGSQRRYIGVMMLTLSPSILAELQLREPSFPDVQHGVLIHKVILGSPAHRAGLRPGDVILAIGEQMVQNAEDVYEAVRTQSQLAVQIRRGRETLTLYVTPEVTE
PICK1, Q9NRD5, sequence (Q9NRD5 17-115): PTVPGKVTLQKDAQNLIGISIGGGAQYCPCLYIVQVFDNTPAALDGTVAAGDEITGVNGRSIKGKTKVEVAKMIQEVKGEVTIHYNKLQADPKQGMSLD
Inadl_6, Q8NI35, sequence (Q8NI35 1058-1167): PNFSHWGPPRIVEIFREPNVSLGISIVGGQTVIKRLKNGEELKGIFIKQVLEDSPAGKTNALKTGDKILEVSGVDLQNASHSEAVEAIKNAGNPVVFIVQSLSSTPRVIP
MAGI2_5, Q86UL8, sequence (Q86UL8 915-1017): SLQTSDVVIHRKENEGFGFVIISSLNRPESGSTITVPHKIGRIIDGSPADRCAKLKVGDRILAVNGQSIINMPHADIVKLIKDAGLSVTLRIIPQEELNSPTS
Inadl_1, Q8NI35, sequence (Q8NI35 113-229): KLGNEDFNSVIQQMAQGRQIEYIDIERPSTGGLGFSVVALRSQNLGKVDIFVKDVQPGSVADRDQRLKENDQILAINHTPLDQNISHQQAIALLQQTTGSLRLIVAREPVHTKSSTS
DLG4_3, P78352, sequence (P78352 306-403): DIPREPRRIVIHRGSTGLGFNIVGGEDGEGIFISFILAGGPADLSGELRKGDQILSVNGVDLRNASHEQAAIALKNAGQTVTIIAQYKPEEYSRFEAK

Binder | pKd (FRMPD2_3, Q68DX3) | pKd (GRIP2_4, Q9C0E4) | pKd (NOS1, P29475) | pKd (Inadl_4, Q8NI35) | pKd (HTRA2, O43464) | pKd (DLG3_2, Q92796) | pKd (MPP7, Q5T2T1) | pKd (PDZD2_2, O15018) | pKd (MAGI2_5, Q86UL8) | pKd (RADIL, Q96JH8) | pKd (Inadl_5, Q8NI35) | pKd (MAGI2_2, Q86UL8) | pKd (HTRA4, P83105) | pKd (IL16_3, Q14005) | pKd (DLG3_3, Q92796) | pKd (SCRIB_3, Q14160) | pKd (MAST1, Q9Y2H9) | pKd (DLG4_3, P78352) | pKd (Inadl_6, Q8NI35) | pKd (DFNB31_3, Q9P202) | also measured
B1 | below the threshold | below the threshold | below the threshold | below the threshold | below the threshold | below the threshold | below the threshold | below the threshold | below the threshold | below the threshold | below the threshold | below the threshold | below the threshold | below the threshold | below the threshold | below the threshold | 3.91 | below the threshold | below the threshold | below the threshold | pKd (Inadl_1, Q8NI35): below the threshold; pKd (LAP2, Q96RT1): 3.74; pKd (LIN7C, Q9NUP9): 3.95; pKd (PTPN13_1, Q12923): below the threshold; pKd (PICK1, Q9NRD5): below the threshold; pKd (DFNB31_2, Q9P202): below the threshold; pKd (TX1BP3, O14907): below the threshold
B2 | below the threshold | below the threshold | below the threshold | below the threshold | below the threshold | 3.47 | below the threshold | 4.52 | 3.48 | below the threshold | below the threshold | 3.89 | below the threshold | below the threshold | 3.73 | 3.63 | 4.76 | 3.59 | below the threshold | below the threshold | pKd (Inadl_1, Q8NI35): below the threshold; pKd (LAP2, Q96RT1): 3.72; pKd (LIN7C, Q9NUP9): below the threshold; pKd (PTPN13_1, Q12923): below the threshold; pKd (PICK1, Q9NRD5): below the threshold; pKd (DFNB31_2, Q9P202): below the threshold; pKd (TX1BP3, O14907): 3.97
B3 | below the threshold | below the threshold | 3.81 | below the threshold | 4.49 | 4.13 | 3.49 | 4.06 | 4.86 | 5.25 | below the threshold | 4.63 | 4.76 | below the threshold | 4.38 | 4.91 | 5.2 | 4.17 | 4.22 | 4.62 | pKd (Inadl_1, Q8NI35): below the threshold; pKd (LAP2, Q96RT1): 3.79; pKd (LIN7C, Q9NUP9): below the threshold; pKd (PTPN13_1, Q12923): below the threshold; pKd (PICK1, Q9NRD5): below the threshold; pKd (DFNB31_2, Q9P202): below the threshold; pKd (TX1BP3, O14907): 5.29
B4 | below the threshold | below the threshold | below the threshold | below the threshold | below the threshold | below the threshold | below the threshold | 3.62 | below the threshold | below the threshold | below the threshold | below the threshold | below the threshold | below the threshold | below the threshold | 4.3 | 4.31 | below the threshold | below the threshold | below the threshold | pKd (Inadl_1, Q8NI35): below the threshold; pKd (LAP2, Q96RT1): 3.58; pKd (LIN7C, Q9NUP9): below the threshold; pKd (PTPN13_1, Q12923): below the threshold; pKd (PICK1, Q9NRD5): below the threshold; pKd (DFNB31_2, Q9P202): below the threshold; pKd (TX1BP3, O14907): 3.87

From paper PMC9482650, “Quantitative fragmentomics allow affinity mapping of interactomes” (Nature Communications, 2022)
